Results as given in patent US20250352611A1, “METHODS FOR TREATING CATARACTS USING POLYPEPTIDES” (REJUKON BIOPHARM INC., priority 2022, published 2025).

Key:
γD-crystallin = biological target: T1, γD-crystallin (Homo sapiens, UniProt P07320); experiment: 1H-15N HSQC NMR of γD-crystallin with peptide; type: binding; parameters: interaction with γD-crystallin from chemical shift difference (CSD): dose or concentration left out as unconfirmed
T1 construct: Wild-type human full-length γD-crystallin gene were inserted into pET14b vectors; made in house; host or cells: E. coli BL21 (DE3)
T1 sequence (P07320 1-174): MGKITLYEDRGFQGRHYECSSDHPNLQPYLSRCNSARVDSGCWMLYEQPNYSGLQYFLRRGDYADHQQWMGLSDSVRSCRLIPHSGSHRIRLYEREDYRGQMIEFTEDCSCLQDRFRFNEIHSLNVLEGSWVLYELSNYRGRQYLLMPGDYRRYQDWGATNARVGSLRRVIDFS
Experimental: To evaluate whether a protein undergoes small or significant structural changes before and after adding polypeptides, ^1H-^15N HSQC spectroscopy is a useful tool and can be used as a “fingerprint” of the three-dimensional structure. […] Wild-type human full-length γD-crystallin gene were inserted into pET14b vectors. E. coli BL21 (DE3) cells were transformed with these vectors. For protein production, cells were grown at 37° C. to an absorbance at 600 nm of 0.6 and induced by the addition of 0.5 mM IPTG at 37° C. for 4 h. For the N15 labeling of the protein, the transformed E. coli BL21(DE3) cells were cultured and induced in M9 medium with NH4Cl as the only nitrogen source. […] Using final 300 uM human γD-crystallin at 25° C., the two-dimensional [^1H-^15N] heteronuclear single quantum coherence (HSQC) spectra were recorded to determine the domain interactions at the residue-specific level.
Chemical shift difference (CSD) was measured for γD-crystallin alone or with Champ-E(RJK001). […]
HSQC spectrums were acquired and analysis with ccpNMR, amide ^1H-^15N combined chemical shift differences were calculated using the equation Δδ=[(0.125ΔδN)^2+ΔδH^2]^1/2. […]
The N15 labeled protein was mix with the unlabeled peptide with the ratio of 1:0, 1:2. […] Amide ^1H-^15N combined chemical shift differences were calculated using the equation Δδ) [(0.125ΔδN)^2+ΔδH^2]. Intensity changes were calculated by I/I0. […]

[1] = system: crystallin proteins of the lens from cataract patients; experiment: Soluble crystallin in cataract lens grinding fluid by western blot (anti-βB1 crystallin); parameters: species or system human; details: 20 ul 2.5 mM RJK001 in 2 ul grinding fluid, RT 10 min
Experimental: Quantitative analysis was performed using densitometry of crystallin proteins by western blot analysis of the supernatant or insoluble fraction of cell lysates.
Quantitative analysis was performed using densitometry of crystallin proteins by western blot analysis of the supernatant or insoluble fraction of lens lysates. Collect one intact eye lenses from cataract patients. Put it in 2 ml Eppendorf tube containing 700 ul protein solubilization buffer, Grind the complete lens at 4° C., 30s once for 3 times with Electric grinder to obtain 1 ml grinding fluid, add 20 ul 2.5 mM RJK001 in 2 ul grinding fluid as the experimental group, add 20 ul protein dissolving solution in 2 ul grinding fluid as a control, place it at RT for 10 min, centrifuge at 13000 rpm and take the supernatant for western blotting, After blocking with 5% milk, membrane were incubated with anti-βB1 crystallin (Santacruz, sc-48335, 1:3000) overnight at 4° C., Membrane were incubated with secondary antibodies for 1 h at room temperature, then the blots were detected by the enhanced chemiluminescence.
C-terminal fusion cell-penetrating peptide RJK001 and N-terminal fusion cell-penetrating peptide RJK012 were purified in vitro and added into SH-SY5Y cell. Cells were harvested at 1 h, 4 h, 8 h and 24 h respectively and were washed with PBS. Total proteins were extracted from SH-SY5Y cells with lysis buffer. […]

[2] = system: lens of cataract patients; experiment: Immersion of intact cataract lens, opacity by daily photographs; parameters: species or system human; details: RJK001 0.5 mM in vehicle, 6 days, dark, room temperature
Experimental: Next, we directly immersed the cataract lens removed during the operation in the buffer solution of the control group and the RJK001 protein solution of the experimental group. During the immersion for up to 6 days, the lens of the patient was photographed and recorded every day. More detailed description of the method is: Collect two intact eye lenses from cataract patients. To each tube was added 400 μL solution of vehicle (0.1% NaN3, 0.3% triton X-100, containing 1:1000 protease inhibitor cocktail) or RJK001 (0.5 mM) in vehicle which covered the lens tissue completely. Lens tissue was incubated in these solutions for 6 days in the dark at room temperature. After sealing the 48-well plate with parafilm to avoid liquid evaporation. Observe the state of the lens under the stereoscope every day and take pictures to record.

1H-15N HSQC spectra of γD-crystallin prior to and after peptide incubation (γD-crystallin; 300 uM 15N γD-crystallin, molar ratio 1:2, 25° C.): significant chemical shifts
Sequence: TEPQEESEEEVEEPEERQQTPEVVPDDSGTFYDQTVSNDLE [RJK001, polypeptide with hydrophilic and hydrophobic segment, expressed in E. coli]
interaction with γD-crystallin from chemical shift difference (CSD) (γD-crystallin; molar ratio γD-crystallin:RJK001 1:2): interacted with the full-length wildtype γD-crystallin protein
solubility of crystallin proteins of the lens (supernatant western blot) [1]: could improve the solubility of crystallin proteins
opacity of the lens [2]: reduced opacity of the lens of cataract patients
